Earlier results, collected in patent publication US12246031B2, “Compositions and methods for tumor immunotherapy” (CHECKMATE PHARMACEUTICALS, INC., priority 2018, dated 2025).

Target: PD-L1 (Homo sapiens, UniProt Q9NZQ7)
Conditions: anti-PD-L1 antibody in clinical development

Chain of PD-L1 (Q9NZQ7 19-290): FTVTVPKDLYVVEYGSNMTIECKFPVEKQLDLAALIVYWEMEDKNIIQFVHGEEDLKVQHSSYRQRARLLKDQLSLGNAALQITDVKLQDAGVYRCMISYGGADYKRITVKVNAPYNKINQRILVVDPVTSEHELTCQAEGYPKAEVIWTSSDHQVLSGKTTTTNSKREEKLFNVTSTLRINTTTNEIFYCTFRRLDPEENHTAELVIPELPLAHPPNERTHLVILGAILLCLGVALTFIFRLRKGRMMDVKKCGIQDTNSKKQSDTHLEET

- Kd: 0.4 nM
Substance: MPDL3280A: anti-PD-L1 antibody under development in human clinical trials (Genetech/Roche)
